{"source": "the supplement of paper PMC6755084", "parents": {"B1": {"name": "F1*; the commonest letter at each place (parent)", "chain": "GAGACCGCAACTGAAAAGTTGTTATCACTTGTCGTAAGACACTTTGGATGGGTTGAAGTTCTGCACGTAGAAGCAAAAGGC"}}, "data": [{"variants_of": "B1", "experiment": "fraction ligated after 30 min (ligated reads / total reads); higher = more ligase activity", "details": "with F1*sub RNA substrate (template-directed ligation), 42 °C", "outline": "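Ribozyme variants were transcribed with T7 from PCR-amplified oligo-pool templates and gel-purified. Ligated and unligated bands, separated on gel, were reverse transcribed with barcoded primers and sequenced on a MiSeq, with core bases filtered at quality ≥20. Fraction ligated per variant was computed as ligated reads divided by total reads.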", "values": [{"variant": "G38C A56C", "fraction ligated": 0.209}, {"variant": "G38C A56T", "fraction ligated": 0.813}, {"variant": "G38C A56G", "fraction ligated": 0.7}, {"variant": "C40A A41T", "fraction ligated": 0.81}, {"variant": "C40A A41C", "fraction ligated": 0.811}, {"variant": "C40A A41G", "fraction ligated": 0.766}, {"variant": "A39G G46A", "fraction ligated": 0.843}, {"variant": "A39G G46T", "fraction ligated": 0.783}, {"variant": "A39G G46C", "fraction ligated": 0.781}, {"variant": "A39C T45C", "fraction ligated": 0.634}, {"variant": "A39C T45A", "fraction ligated": 0.778}, {"variant": "A39C T45G", "fraction ligated": 0.138}, {"variant": "G38C T49C", "fraction ligated": 0.0586}, {"variant": "G38C T49G", "fraction ligated": 0.255}, {"variant": "G38C T49A", "fraction ligated": 0.233}, {"variant": "A39C G46T", "fraction ligated": 0.776}, {"variant": "A39C G46A", "fraction ligated": 0.802}, {"variant": "A39C G46C", "fraction ligated": 0.764}, {"variant": "G38A A39C", "fraction ligated": 0.817}, {"variant": "G38A A39T", "fraction ligated": 0.829}, {"variant": "G38A A39G", "fraction ligated": 0.854}, {"variant": "A39T T43A", "fraction ligated": 0.829}, {"variant": "A39T T43C", "fraction ligated": 0.795}, {"variant": "A39T T43G", "fraction ligated": 0.772}, {"variant": "G38C A41G", "fraction ligated": 0.793}, {"variant": "G38C A41T", "fraction ligated": 0.785}, {"variant": "G38C A41C", "fraction ligated": 0.807}, {"variant": "G38C G46C", "fraction ligated": 0.523}, {"variant": "G38C G46T", "fraction ligated": 0.697}, {"variant": "G38C G46A", "fraction ligated": 0.791}, {"variant": "A39C A48T", "fraction ligated": 0.465}, {"variant": "A39C A48G", "fraction ligated": 0.776}, {"variant": "A39C A48C", "fraction ligated": 0.0845}, {"variant": "G38A A57G", "fraction ligated": 0.855}, {"variant": "G38A A57C", "fraction ligated": 0.825}, {"variant": "G38A A57T", "fraction ligated": 0.819}, {"variant": "A39T G55C", "fraction ligated": 0.738}, {"variant": "A39T G55T", "fraction ligated": 0.804}, {"variant": "A39T G55A", "fraction ligated": 0.786}, {"variant": "G38C T43G", "fraction ligated": 0.812}, {"variant": "G38C T43A", "fraction ligated": 0.825}, {"variant": "G38C T43C", "fraction ligated": 0.822}, {"variant": "G38A A48C", "fraction ligated": 0.766}, {"variant": "G38A A48T", "fraction ligated": 0.252}, {"variant": "G38A A48G", "fraction ligated": 0.796}, {"variant": "A39G A41T", "fraction ligated": 0.796}, {"variant": "A39G A41G", "fraction ligated": 0.791}, {"variant": "A39G A41C", "fraction ligated": 0.781}, {"variant": "A39T A57T", "fraction ligated": 0.781}, {"variant": "A39T A57G", "fraction ligated": 0.869}, {"variant": "A39T A57C", "fraction ligated": 0.792}, {"variant": "C40A A57G", "fraction ligated": 0.843}, {"variant": "C40A A57C", "fraction ligated": 0.812}, {"variant": "C40A A57T", "fraction ligated": 0.792}, {"variant": "C40A G46T", "fraction ligated": 0.792}, {"variant": "C40A G46C", "fraction ligated": 0.817}, {"variant": "C40A G46A", "fraction ligated": 0.819}, {"variant": "G38T T44A", "fraction ligated": 0.823}, {"variant": "G38T T44C", "fraction ligated": 0.831}, {"variant": "G38T T44G", "fraction ligated": 0.828}, {"variant": "A39C", "fraction ligated": 0.832}, {"variant": "A39G", "fraction ligated": 0.839}, {"variant": "A39T", "fraction ligated": 0.833}, {"variant": "A39T T44G", "fraction ligated": 0.827}, {"variant": "A39T T44A", "fraction ligated": 0.79}, {"variant": "A39T T44C", "fraction ligated": 0.821}, {"variant": "C40G", "fraction ligated": 0.816}, {"variant": "C40A", "fraction ligated": 0.833}, {"variant": "A39C C40T", "fraction ligated": 0.784}, {"variant": "A39C C40G", "fraction ligated": 0.811}, {"variant": "A39C C40A", "fraction ligated": 0.797}, {"variant": "A39C G47C", "fraction ligated": 0.349}, {"variant": "A39C G47A", "fraction ligated": 0.757}, {"variant": "A39C G47T", "fraction ligated": 0.3}, {"variant": "A39C T49C", "fraction ligated": 0.159}, {"variant": "A39C T49G", "fraction ligated": 0.737}, {"variant": "A39C T49A", "fraction ligated": 0.706}, {"variant": "G38T T43C", "fraction ligated": 0.814}, {"variant": "G38T T43G", "fraction ligated": 0.773}, {"variant": "G38T T43A", "fraction ligated": 0.808}, {"variant": "C40A G50A", "fraction ligated": 0.212}, {"variant": "C40A G50T", "fraction ligated": 0.488}, {"variant": "C40A G50C", "fraction ligated": 0.123}, {"variant": "G38T T49G", "fraction ligated": 0.76}, {"variant": "G38T T49C", "fraction ligated": 0.204}, {"variant": "G38T T49A", "fraction ligated": 0.757}, {"variant": "G38A C42G", "fraction ligated": 0.837}, {"variant": "G38A C42T", "fraction ligated": 0.87}, {"variant": "G38A C42A", "fraction ligated": 0.854}, {"variant": "A39G T49G", "fraction ligated": 0.791}, {"variant": "A39G T49C", "fraction ligated": 0.714}, {"variant": "A39G T49A", "fraction ligated": 0.805}, {"variant": "A39T G47A", "fraction ligated": 0.759}, {"variant": "A39T G47T", "fraction ligated": 0.22}, {"variant": "A39T G47C", "fraction ligated": 0.229}, {"variant": "G38C A57G", "fraction ligated": 0.87}, {"variant": "G38C A57C", "fraction ligated": 0.824}, {"variant": "G38C A57T", "fraction ligated": 0.828}, {"variant": "G38T G50C", "fraction ligated": 0.134}, {"variant": "G38T G50A", "fraction ligated": 0.386}, {"variant": "G38T G50T", "fraction ligated": 0.723}, {"variant": "A39G G55C", "fraction ligated": 0.801}, {"variant": "A39G G55T", "fraction ligated": 0.819}, {"variant": "A39G G55A", "fraction ligated": 0.844}, {"variant": "G38C T44A", "fraction ligated": 0.845}, {"variant": "G38C T44C", "fraction ligated": 0.819}, {"variant": "G38C T44G", "fraction ligated": 0.839}, {"variant": "G38A G47A", "fraction ligated": 0.796}, {"variant": "G38A G47T", "fraction ligated": 0.324}, {"variant": "G38A G47C", "fraction ligated": 0.163}, {"variant": "C40A T43A", "fraction ligated": 0.856}, {"variant": "C40A T43G", "fraction ligated": 0.801}, {"variant": "C40A T43C", "fraction ligated": 0.768}, {"variant": "G38A G50T", "fraction ligated": 0.72}, {"variant": "G38A G50A", "fraction ligated": 0.391}, {"variant": "G38A G50C", "fraction ligated": 0.194}, {"variant": "G38T A48T", "fraction ligated": 0.129}, {"variant": "G38T A48G", "fraction ligated": 0.792}, {"variant": "G38T A48C", "fraction ligated": 0.757}, {"variant": "G38T G47C", "fraction ligated": 0.114}, {"variant": "G38T G47T", "fraction ligated": 0.139}, {"variant": "G38T G47A", "fraction ligated": 0.762}, {"variant": "G38C A48C", "fraction ligated": 0.269}, {"variant": "G38C A48G", "fraction ligated": 0.53}, {"variant": "G38C A48T", "fraction ligated": 0.0108}, {"variant": "A39G T43A", "fraction ligated": 0.838}, {"variant": "A39G T43G", "fraction ligated": 0.815}, {"variant": "A39G T43C", "fraction ligated": 0.814}, {"variant": "C40G G46C", "fraction ligated": 0.801}, {"variant": "C40G G46A", "fraction ligated": 0.825}, {"variant": "C40G G46T", "fraction ligated": 0.793}, {"variant": "A39G A48T", "fraction ligated": 0.824}, {"variant": "A39G A48C", "fraction ligated": 0.766}, {"variant": "A39G A48G", "fraction ligated": 0.814}, {"variant": "G38A T49G", "fraction ligated": 0.785}, {"variant": "G38A T49C", "fraction ligated": 0.245}, {"variant": "G38A T49A", "fraction ligated": 0.782}, {"variant": "A37T T45G", "fraction ligated": 0.408}, {"variant": "A37T T45C", "fraction ligated": 0.768}, {"variant": "A37T T45A", "fraction ligated": 0.787}, {"variant": "C40G A41C", "fraction ligated": 0.784}, {"variant": "C40G A41T", "fraction ligated": 0.768}, {"variant": "C40G A41G", "fraction ligated": 0.807}, {"variant": "G38T G46A", "fraction ligated": 0.801}, {"variant": "G38T G46T", "fraction ligated": 0.782}, {"variant": "G38T G46C", "fraction ligated": 0.787}, {"variant": "C40A T45C", "fraction ligated": 0.358}, {"variant": "C40A T45G", "fraction ligated": 0.0271}, {"variant": "C40A T45A", "fraction ligated": 0.66}, {"variant": "G38A T45C", "fraction ligated": 0.696}, {"variant": "G38A T45G", "fraction ligated": 0.0379}, {"variant": "G38A T45A", "fraction ligated": 0.773}, {"variant": "G38T C40T", "fraction ligated": 0.805}, {"variant": "G38T C40A", "fraction ligated": 0.836}, {"variant": "G38T C40G", "fraction ligated": 0.82}, {"variant": "G38T G55A", "fraction ligated": 0.823}, {"variant": "G38T G55C", "fraction ligated": 0.781}, {"variant": "G38T G55T", "fraction ligated": 0.798}, {"variant": "G38C C40A", "fraction ligated": 0.811}, {"variant": "G38C C40G", "fraction ligated": 0.813}, {"variant": "G38C C40T", "fraction ligated": 0.802}, {"variant": "G38A", "fraction ligated": 0.844}, {"variant": "G38C", "fraction ligated": 0.825}, {"variant": "G38T", "fraction ligated": 0.852}, {"variant": "A39G A56C", "fraction ligated": 0.787}, {"variant": "A39G A56T", "fraction ligated": 0.781}, {"variant": "A39G A56G", "fraction ligated": 0.792}]}]}
